Test results from publication PMC5691136 (2017).

Target: PS372424 (CXCR3 agonist)

B1: CXCR3-A expressed from pEGFPN2 in HEK-293 cells (HEK-CXCR3-A) (receptor)
chain: MVLEVSDHQVLNDAEVAALLENFSSSYDYGENESDSCCTSPPCPQDFSLNFDRAFLPALYSLLFLLGLLGNGAVAAVLLSRRTALSSTDTFLLHLAVADTLLVLTLPLWAVDAAVQWVFGSGLCKVAGALFNINFYAGALLLACISFDRYLNIVHATQLYRRGPPARVTLTCLAVWGLCLLFALPDFIFLSAHHDERLNATHCQYNFPQVGRTALRVLQLVAGFLLPLLVMAYCYAHILAVLLVSRGQRRLRAMRLVVVVVVAFALCWTPYHLVVLVDILMDLGALARNCGRESRVDVAKSVTSGLGYMHCCLNPLLYAFVGVKFRERMWMLLLRLGCPNQRGLQRQPSSSRRDSSWSETSEASYSGL
  Kd: 40 nM
